In article PMC9371924, “Exploration of DNA processing features unravels novel properties of ICE conjugation in Gram-positive bacteria”:
Positions count from the first letter of the chain named.

How the values were obtained:
[1] = molecular target: T1, RelSt3 (MOBT relaxase) (Streptococcus thermophilus (ICESt3)) (UniProt Q935T7); experiment: EMSA; conditions: PAGE EMSA: 20 mM Tris-HCl (pH not stated), 500 mM NaCl, 100 ug/ml salmon sperm DNA, 0.11 uM DNA, 15 min 37 C, gel run at 4 C; agarose EMSA: 400 ng DNA in …
T1 sequence: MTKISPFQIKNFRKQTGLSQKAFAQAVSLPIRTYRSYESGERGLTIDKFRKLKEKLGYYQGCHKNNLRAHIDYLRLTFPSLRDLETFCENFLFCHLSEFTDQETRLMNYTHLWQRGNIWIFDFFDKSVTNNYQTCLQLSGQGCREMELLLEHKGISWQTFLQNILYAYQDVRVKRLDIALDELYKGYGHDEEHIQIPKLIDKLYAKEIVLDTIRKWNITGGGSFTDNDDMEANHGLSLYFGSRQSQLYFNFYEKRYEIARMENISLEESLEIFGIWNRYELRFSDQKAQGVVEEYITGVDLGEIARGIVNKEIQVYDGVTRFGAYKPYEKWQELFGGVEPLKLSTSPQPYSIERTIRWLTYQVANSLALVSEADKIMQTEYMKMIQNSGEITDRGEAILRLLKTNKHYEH

[2] = molecular target: T2, RelSt3 (MOBT relaxase) (Streptococcus thermophilus (ICESt3)) (UniProt Q935T7); experiment: EMSA; conditions: PAGE EMSA: 20 mM Tris-HCl (pH not stated), 500 mM NaCl, 100 ug/ml salmon sperm DNA, 0.11 uM DNA, 15 min 37 C, gel run at 4 C; agarose EMSA: 400 ng DNA in …; remark: listed apart in the source
T2 sequence: T1 sequence with S28N, G61E, V128A, D190E, D229N, T297N, A324S, E333R

RelSt3 (MOBT relaxase) [3] = molecular target: T3, RelSt3 (MOBT relaxase) (Streptococcus thermophilus (ICESt3), UniProt Q935T7 1-410); experiment: EMSA; PAGE EMSA: 20 mM Tris-HCl (pH not stated), 500 mM NaCl, 100 ug/ml salmon sperm DNA, 0.11 uM DNA, 15 min 37 C, gel run at 4 C; agarose EMSA: 400 ng DNA in 20 ul, 15 min 37 C; conditions: protein: recombinant, tags: N-terminal 6xHis-TEV (pSKB3), label: 5' 6-FAM, blunt
T3 sequence: T1 sequence

RelSt3 (MOBT relaxase) [4] = molecular target: T3, RelSt3 (MOBT relaxase); experiment: EMSA; data not shown; PAGE EMSA: 20 mM Tris-HCl (pH not stated), 500 mM NaCl, 100 ug/ml salmon sperm DNA, 0.11 uM DNA, 15 min 37 C, gel run at 4 C; agarose EMSA: 400 ng DNA in 20 ul, 15 min 37 C; conditions: protein: recombinant; tags: N-terminal 6xHis-TEV (pSKB3); label: 5' 6-FAM; blunt
[5] = molecular target: T4, RelSt3(64-410), HTH deleted (Streptococcus thermophilus (ICESt3), UniProt Q935T7 64-410); experiment: EMSA; up to 1.75 uM; PAGE EMSA: 20 mM Tris-HCl (pH not stated), 500 mM NaCl, 100 ug/ml salmon sperm DNA, 0.11 uM DNA, 15 min 37 C, gel run at 4 C; agarose EMSA: 400 ng DNA in 20 ul, 15 min 37 C; conditions: protein: recombinant; tags: N-terminal 6xHis-TEV (pSKB3); label: 5' 6-FAM; blunt; possible cruciform
T4 sequence: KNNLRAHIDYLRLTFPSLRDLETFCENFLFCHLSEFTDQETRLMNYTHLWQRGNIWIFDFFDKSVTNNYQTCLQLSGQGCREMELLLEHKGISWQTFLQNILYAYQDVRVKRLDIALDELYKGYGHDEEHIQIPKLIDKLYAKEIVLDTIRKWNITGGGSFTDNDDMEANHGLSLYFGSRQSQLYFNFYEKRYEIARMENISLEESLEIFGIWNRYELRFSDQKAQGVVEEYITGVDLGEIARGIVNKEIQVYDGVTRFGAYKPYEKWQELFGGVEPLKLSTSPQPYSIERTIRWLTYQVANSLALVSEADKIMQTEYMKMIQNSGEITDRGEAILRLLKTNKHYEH

RelSt3 R32A-R35A = molecular target: T5, RelSt3 R32A-R35A (Streptococcus thermophilus (ICESt3), UniProt Q935T7 1-410, R32A;R35A); experiment: EMSA; up to 6.4 uM; PAGE EMSA: 20 mM Tris-HCl (pH not stated), 500 mM NaCl, 100 ug/ml salmon sperm DNA, 0.11 uM DNA, 15 min 37 C, gel run at 4 C; agarose EMSA: 400 ng DNA in 20 ul, 15 min 37 C; conditions: protein: recombinant; tags: N-terminal 6xHis-TEV (pSKB3); label: 5' 6-FAM; blunt; possible cruciform
T5 sequence: T1 sequence with R32A, R35A

RelSt3 (MOBT relaxase) [6] = molecular target: T3, RelSt3 (MOBT relaxase); experiment: EMSA; apparent Kd; PAGE EMSA: 20 mM Tris-HCl (pH not stated), 500 mM NaCl, 100 ug/ml salmon sperm DNA, 0.11 uM DNA, 15 min 37 C, gel run at 4 C; agarose EMSA: 400 ng DNA in 20 ul, 15 min 37 C; conditions: protein: recombinant; tags: N-terminal 6xHis-TEV (pSKB3); label: 5' 6-FAM; blunt; possible cruciform
RelSt3 (MOBT relaxase) [7] = molecular target: T3, RelSt3 (MOBT relaxase); experiment: EMSA; up to 6.4 uM; PAGE EMSA: 20 mM Tris-HCl (pH not stated), 500 mM NaCl, 100 ug/ml salmon sperm DNA, 0.11 uM DNA, 15 min 37 C, gel run at 4 C; agarose EMSA: 400 ng DNA in 20 ul, 15 min 37 C; conditions: protein: recombinant; tags: N-terminal 6xHis-TEV (pSKB3); label: 5' 6-FAM; blunt

GAGACTTCAACCCCCGATTTCTAATAGGGGGGTTACATTTTCAAGATTTAGAAAGTGTGTCACTTTGGTCCAAAAAGTGTGTCACTTAGTCAAAAGGAG / CTCCTTTTGACTAAGTGACACACTTTTTGGACCAAAGTGACACACTTTCTAAATCTTGA [ori50 (ss nic region + ds IR2)]
Kd [1]: 3200 nM

AAAAAGAATTCTGTTCATCATGGGCTAGGACAAGGGCAAGGACAAGCCTGACCACAGGTCAGGCGCAGACCGTAGCCCGAAGTTCCTAGGCCATGATGAGACTTCAACCCCCGATTTCTAATAGGGGGGTTACATTTGGCCAAAGTGCCACGTCCACCCCTCCTCATTCCTTGTGGGAGTTGGGATTTCAAGATTTAGAAAGTGTGTCACTTTGGTCCAAAAAGTGTGTCACTTAGTCAAAAGGAGGTGTTCCCATGAATGACTAAAATAAGTCCCTTTCAGATCAAGGGCCCTTTTT (double strand) [oriT1 PCR product]
binding [2]: binds

B1: ori41M6 (IR2b mutated) (dsDNA)
DNA 1: TCAAGATTTAGAAAGTGTGTCACTTTGGTCCAAACGATACGCTGACGAGTCAAAAGGAG
DNA 2: CTCCTTTTGACTCGTCAGCGTATCGTTTGGACCAAAGTGACACACTTTCTAAATCTTGA
binding result (RelSt3 (MOBT relaxase) [3]): no binding

B2: ori47 (IR1-IR2 spacer) (dsDNA)
DNA 1: ACATTTGGCCAAAGTGCCACGTCCACCCCTCCTCATTCCTTGTGGGAGTTGGGATTTCAAGATTTAGA
DNA 2: TCTAAATCTTGAAATCCCAACTCCCACAAGGAATGAGGAGGGGTGGACGTGGCACTTTGGCCAAATGT
binding result (RelSt3 (MOBT relaxase) [4]): no binding

B3: ori41M11 (IR2 replaced by IR of same length and GC%) (dsDNA)
DNA 1: TCAAGATTTAGACGATACGCTATCGTGGTCCAAACGATACGCTATCGAGTCAAAAGGAG
DNA 2: CTCCTTTTGACTCGATAGCGTATCGTTTGGACCACGATAGCGTATCGTCTAAATCTTGA
binding result (RelSt3 (MOBT relaxase) [3]; possible hairpin): no binding

B4: ori41M5 (IR2a mutated) (dsDNA)
DNA 1: TCAAGATTTAGACGATACGCTGACGTGGTCCAAAAAGTGTGTCACTTAGTCAAAAGGAG
DNA 2: CTCCTTTTGACTAAGTGACACACTTTTTGGACCACGTCAGCGTATCGTCTAAATCTTGA
binding result (RelSt3 (MOBT relaxase) [3]): no binding

B5: ori41 (ori41WT) dsDNA, full IR2 (dsDNA)
DNA 1: TCAAGATTTAGAAAGTGTGTCACTTTGGTCCAAAAAGTGTGTCACTTAGTCAAAAGGAG
DNA 2: CTCCTTTTGACTAAGTGACACACTTTTTGGACCAAAGTGACACACTTTCTAAATCTTGA
binding result [5]: no binding | binding result (RelSt3 R32A-R35A): no binding | Kd (RelSt3 (MOBT relaxase) [6]): ~1600 nM

B6: non-specific dsDNA (dsDNA)
DNA 1: CTTACCGATAAGAACTTACCGCTCCTATGAATCTGGGGAAAGAGGTCTGACCATTGACAAGTTTCGAAAACTCAAAGAAAAGC
DNA 2: GCTTTTCTTTGAGTTTTCGAAACTTGTCAATGGTCAGACCTCTTTCCCCAGATTCATAGGAGCGGTAAGTTCTTATCGGTAAG
binding result (RelSt3 (MOBT relaxase) [7]): no binding

B7: ori46 (IR1, nic site) (dsDNA)
DNA 1: GAGACTTCAACCCCCGATTTCTAATAGGGGGGTTACAT
DNA 2: ATGTAACCCCCCTATTAGAAATCGGGGGTTGAAGTCTC
binding result (RelSt3 (MOBT relaxase) [7]): no binding
